{"source": "patent US20220332821A1", "about": "(Novartis, published 2022)", "key": {"soluble BCMA": {"biological_target": "T1, soluble BCMA (UniProt Q02223 1-54)", "T1 sequence (looked up)": "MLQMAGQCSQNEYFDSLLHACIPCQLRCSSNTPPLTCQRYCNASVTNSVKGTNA", "experiment": "cell-based or functional assay"}, "[1]": {"biological_target": "T2, BCMA on KMS11 myeloma cells (UniProt Q02223 1-184)", "T2 sequence (looked up)": "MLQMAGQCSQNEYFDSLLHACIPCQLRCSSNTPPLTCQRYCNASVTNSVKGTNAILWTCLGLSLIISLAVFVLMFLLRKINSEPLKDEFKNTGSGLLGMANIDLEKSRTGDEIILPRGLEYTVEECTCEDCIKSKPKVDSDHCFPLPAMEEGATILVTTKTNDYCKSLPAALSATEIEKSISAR", "experiment": "cell-based or functional assay"}, "Cyno BCMA-Fc": {"biological_target": "T3, Cyno BCMA-Fc (cynomolgus, UniProt A0A2K5UD97 1-53)", "T3 construct": "not shown: Fc part", "T3 sequence (A0A2K5UD97 entry or part of it)": "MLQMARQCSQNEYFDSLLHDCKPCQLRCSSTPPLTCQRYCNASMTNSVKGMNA", "experiment": "method not stated; mean of three biological replicates"}, "Human CD3-biotin": {"biological_target": "T4, Human CD3-biotin (human)", "T4 chain": "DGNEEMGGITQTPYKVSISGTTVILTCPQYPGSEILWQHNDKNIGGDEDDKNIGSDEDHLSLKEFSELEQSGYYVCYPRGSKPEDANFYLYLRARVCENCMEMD", "experiment": "method not stated; mean of three biological replicates"}, "Mouse BCMA-Fc": {"biological_target": "T5, Mouse BCMA-Fc (mouse, UniProt O88472 1-49, limits assumed, not fully specified)", "T5 construct": "not shown: Fc part", "T5 chain (looked up)": "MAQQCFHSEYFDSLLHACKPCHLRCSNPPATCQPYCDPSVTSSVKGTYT", "experiment": "method not stated; mean of three biological replicates"}}}
{"binder": "BSBM3 (bispecific antibody, Heterodimeric IgG1 format: anti-BCMA Fab half antibody and anti-CD3 scFv-Fc half antibody; also called BSMB3) heavy: not shown light: QSALTQPASVSGSPGQSITISCTGTSSDVGGYNYVSWYQQHPGKAPKLMIYDVSNRLRGVSNRFSGSKSGNTASLTISGLQAEDEADYYCSSYTSSSALYVFGSGTKVTVLGQPKAAPSVTLFPPSSEELQANKATLVCLISDFYPGAVTVAWKADSSPVKAGVETTTPSKQSNNKYAASSYLSLTPEQWKSHRSYSCQVTHEGSTVEKTVAPTECS not shown", "values": [{"measurement": "EC30 in RTCC assay, fold increase with 30 ng/mL soluble BCMA", "setting": "soluble BCMA", "value": 6, "unit": "fold"}, {"measurement": "EC30 in RTCC assay, fold increase with 100 ng/mL soluble BCMA", "setting": "soluble BCMA", "value": 15, "unit": "fold"}, {"measurement": "EC30 in RTCC assay, fold increase with 300 ng/mL soluble BCMA", "setting": "soluble BCMA", "value": 41, "unit": "fold"}, {"measurement": "EC50 in RTCC assay (without added recombinant soluble BCMA)", "setting": "[1]", "value": "~0.07", "unit": "mg/L"}, {"measurement": "EC50 in RTCC assay, BSBM3 with AL-102 (gamma secretase inhibitor that raises surface BCMA)", "setting": "[1]", "value": 0.02, "unit": "nM"}, {"measurement": "EC50 of KMS11-Luc cell death in RTCC assay, BSBM3 alone", "setting": "[1]", "value": 1, "unit": "nM"}, {"measurement": "Kd", "setting": "Cyno BCMA-Fc", "value": 1.29, "unit": "nM"}, {"measurement": "Kd", "setting": "Human CD3-biotin", "value": 8.78, "unit": "nM"}, {"measurement": "Kd", "setting": "Mouse BCMA-Fc", "value": 1.15, "unit": "nM"}]}
